# Test results reported in PMC12669751, “Immunodominant antibodies against hemagglutinin in ferrets following infection with 2018 to 2019 influenza vaccine strains” (NPJ Vaccines, 2025).
# B1: monoclonal antibody FluA-20 (antibody, V domains shown)
# VH: QVQLEESGPGLVKPSETLSLTCSVSGVSVTSDIYYWTWIRQPPGKGLEWIGYIFYNGDTNYNPSLKSRVTMSIDTSKNEFSLRLTSVTAADTAVYFCARGTEDLGYCSSGSCPNHWGQGTLVTVSS
# VL: DIVMTQSPSSLSASIGDRVTITCRPSQNIRSFLNWFQHKPGKAPKLLIYAASNLQSGVPSRFSGSGSGTEFTLTIRSLQPEDFATYYCQQSYNTPPTFGQGTKVEIK
# notes: also called FluA-20 mAb; pan-H3 anti-HA1 mAb; copies: 2 + 2
# Target: TX/50 egg-version rHA1 (Influenza A virus A/Texas/50/2012 …, UniProt R4L1D1, strain)
# Assay: BLI
# Conditions: one partner purified
binder,measurement,value
B1,binding result,binds
